Data taken from patent publication US20240190989A1 (BEIGENE SWITZERLAND, published 2024).
Substitutions are numbered along the chain they refer to. Like-named read-outs stand apart in the source and are kept apart here. Values belong to the binder of their own block, whether it stands above or below them.

Assays:
[1] = target: T1, human CD137 ECD-mIgG2a (human); assay: SPR, Fc-fusion VH captured
T1 construct: ECD 24-183 of huCD137 fused to mouse IgG2a Fc; also called huCD137-mIgG2a; huCD137

[2] = target: T1, human CD137 ECD-mIgG2a; assay: SPR, Fc fusion VH
[3] = target: T2, full-length human CD137 on cells (Hut78/huCD137, HEK293 transfectants, JK-NFKB-CD137) (human, UniProt Q07011 24-255); assay: flow cytometry on Hut78/huCD137 cells
T2 construct: also called native CD137; TNFRSF9
T2 sequence (Q07011 24-255 limits assumed): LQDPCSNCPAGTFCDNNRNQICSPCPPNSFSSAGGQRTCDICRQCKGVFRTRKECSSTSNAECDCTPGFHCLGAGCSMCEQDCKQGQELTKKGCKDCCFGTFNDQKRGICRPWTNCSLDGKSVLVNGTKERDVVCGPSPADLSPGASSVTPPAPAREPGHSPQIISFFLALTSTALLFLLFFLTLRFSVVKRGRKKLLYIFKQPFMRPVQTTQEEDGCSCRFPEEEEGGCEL

[4] = target: T2, full-length human CD137 on cells …; assay: flow cytometry on Hut78/huCD137 cells; remark: listed apart in the source
[5] = target: T1, human CD137 ECD-mIgG2a; assay: SPR, A-CEAxCD137 format
[6] = target: T2, full-length human CD137 on cells …; assay: cell-based or functional assay
[7] = target: T2, full-length human CD137 on cells …; assay: cell-based or functional assay; remark: listed apart in the source
[8] = target: T2, full-length human CD137 on cells …; assay: flow cytometry on Hut78/huCD137 cells; remark: listed apart in the source
[9] = target: T2, full-length human CD137 on cells …; assay: flow cytometry on Hut78/huCD137 cells; remark: listed apart in the source
[10] = target: T1, human CD137 ECD-mIgG2a; assay: SPR, human CD137 ECD-mIgG2a
[11] = target: T3, full-length human CEA on cells (MKN45, LOVO, L929/huCEA, CT26/CEA, CT26-OS8-CEA) (human, UniProt P06731 35-685); assay: flow cytometry on CT26/CEA cells
T3 construct: also called CEACAM5; native CEA
T3 sequence: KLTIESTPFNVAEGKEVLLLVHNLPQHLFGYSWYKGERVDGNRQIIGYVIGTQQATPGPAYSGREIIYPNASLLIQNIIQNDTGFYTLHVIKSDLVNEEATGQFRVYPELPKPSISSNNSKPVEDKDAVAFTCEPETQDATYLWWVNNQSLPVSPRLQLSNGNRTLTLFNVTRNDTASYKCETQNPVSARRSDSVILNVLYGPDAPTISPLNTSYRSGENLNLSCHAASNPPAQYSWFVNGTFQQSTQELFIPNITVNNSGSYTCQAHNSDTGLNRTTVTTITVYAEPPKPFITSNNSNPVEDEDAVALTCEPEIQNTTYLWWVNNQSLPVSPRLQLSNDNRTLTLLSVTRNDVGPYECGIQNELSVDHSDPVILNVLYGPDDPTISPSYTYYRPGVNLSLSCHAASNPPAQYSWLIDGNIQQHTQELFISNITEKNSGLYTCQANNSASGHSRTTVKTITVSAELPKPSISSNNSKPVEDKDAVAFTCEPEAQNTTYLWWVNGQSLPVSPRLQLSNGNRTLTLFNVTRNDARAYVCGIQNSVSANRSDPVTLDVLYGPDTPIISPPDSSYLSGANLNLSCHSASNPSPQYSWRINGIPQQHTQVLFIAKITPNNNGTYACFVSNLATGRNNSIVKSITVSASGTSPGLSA

[12] = target: T2, full-length human CD137 on cells …; assay: flow cytometry competition on Hut78/huCD137 cells: serially diluted human CD137 ligand-mIgG2a against BGA-4712 VH-Fc, bound VH-Fc detected with anti-hu IgG Fc [panel B]
[13] = target: T1, human CD137 ECD-mIgG2a; assay: competition ELISA on coated human CD137 ECD-mIgG2a: serially diluted human CD137 ligand ECD-mIgG2a against BGA-5623 (IgG4), bound antibody detected with anti-human IgG-HRP [panel A]

T1 sequence (chain, as listed by the source limits assumed): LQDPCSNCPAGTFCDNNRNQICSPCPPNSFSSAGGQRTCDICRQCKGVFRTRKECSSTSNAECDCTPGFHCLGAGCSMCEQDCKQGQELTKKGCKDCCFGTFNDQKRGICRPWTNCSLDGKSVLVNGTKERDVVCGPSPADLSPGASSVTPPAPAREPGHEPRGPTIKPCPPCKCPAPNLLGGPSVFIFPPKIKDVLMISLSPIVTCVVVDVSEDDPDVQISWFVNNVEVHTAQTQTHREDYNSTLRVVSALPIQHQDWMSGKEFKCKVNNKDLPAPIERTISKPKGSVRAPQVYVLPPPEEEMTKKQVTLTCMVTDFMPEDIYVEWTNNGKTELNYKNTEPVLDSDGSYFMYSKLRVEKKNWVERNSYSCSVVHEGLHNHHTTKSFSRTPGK

B1: BGA-4712-M3-mutFc (Fc fusion VH) (Fc fusion)
chain: EVQLLESGGGLVQPGGSLRLSCAASGFTLSAEDVGWVRQAPGKGLEWVSAILDFGGSTYYAESVKGRFTISRDNAKNTLYLQMSSLRAEDTAVYYCARVVYHAGGGVTFDYWGQGTLVTVSSGGGGSDKTHTCPPCPAPPAAGPSVFLFPPKPKDTLMISRTPEVTCVVVDVSHEDPEVKFNWYVDGVEVHNAKTKPREEQYNSTYRVVSVLTVLHQDWLNGKEYKCKVSNKALAAPIEKTISKAKGQPREPQVYTLPPSREEMTKNQVSLTCLVKGFYPSDIAVEWESNGQPENNYKTTPPVLDSDGSFFLYSKLTVDKSRWQQGNVFSCSVMHEALHNHYTQKSLSLSPGK
Kd [1]: 169 nM | Kd [2]: 169 nM | EC50 [3]: 2.37 µg/mL

B3: BGA-5623-mutFc (Fc fusion VH Ab) (Fc fusion)
chain: B1 chain with L29V, F54K, V99I, Y111T, W112R, L117Q
Kd [1]: 50.3 nM | EC50 (read off the curve) [4]: ~0.5 µg/mL

B5: D-CD137/CEA (Format D: BGA-4712 VH fused to the N-terminus of the heavy chain of the anti-CEA antibody) (bispecific antibody, human IgG1, kappa)
heavy: EVQLLESGGGLVQPGGSLRLSCAASGFMLSAEDVGWVRQAPGKGLEWVSAILDFGGSTYYADSVKGRFTISRDNSKNTLYLQMNSLRAEDTAVYYCARVVYHAGGGVTFDYWGQGTLVTVSSSGGGGSQVQLVQSGAEVKKPGASVKVSCKASGYIFTSYYLHWVRQAPGQGLEWIGYINPQTGKTSYAQKFQGRVTMTRDTSTSTVYMELSSLRSEDTAVYYCAREYGNYNYPLDYWGQGTLVTVSSASTKGPSVFPLAPSSKSTSGGTAALGCLVKDYFPEPVTVSWNSGALTSGVHTFPAVLQSSGLYSLSSVVTVPSSSLGTQTYICNVNHKPSNTKVDKKVEPKSCDKTHTCPPCPAPPAAGPSVFLFPPKPKDTLMISRTPEVTCVVVDVSHEDPEVKFNWYVDGVEVHNAKTKPREEQYNSTYRVVSVLTVLHQDWLNGKEYKCKVSNKALAAPIEKTISKAKGQPREPQVYTLPPSREEMTKNQVSLTCLVKGFYPSDIAVEWESNGQPENNYKTTPPVLDSDGSFFLYSKLTVDKSRWQQGNVFSCSVMHEALHNHYTQKSLSLSPGK
light: DIQMTQSPSSLSASVGDRVTITCRASENQYGYLAWYQQKPGKVPKLLIYNYKNLVEGVPSRFSGSGSGTDFTLTISSLQPEDVATYYCQHHLGTPYTFGQGTKVEIKRTVAAPSVFIFPPSDEQLKSGTASVVCLLNNFYPREAKVQWKVDNALQSGNSQESVTEQDSKDSTYSLSSTLTLSKADYEKHKVYACEVTHQGLSSPVTKSFNRGEC
notes: Symmetric IgG-like molecule, inert Fc; also called D-CEAxCD137
EC50 [9]: 2.28 µg/mL | Kd [10]: 78 nM | EC50 [11]: 3.78 µg/mL

B6: A-CD137/CEA (Format A: BGA-4712 VH fused to the C-terminus of the Fc of the anti-CEA antibody) (bispecific antibody, human IgG1, kappa)
heavy: QVQLVQSGAEVKKPGASVKVSCKASGYIFTSYYLHWVRQAPGQGLEWIGYINPQTGKTSYAQKFQGRVTMTRDTSTSTVYMELSSLRSEDTAVYYCAREYGNYNYPLDYWGQGTLVTVSSASTKGPSVFPLAPSSKSTSGGTAALGCLVKDYFPEPVTVSWNSGALTSGVHTFPAVLQSSGLYSLSSVVTVPSSSLGTQTYICNVNHKPSNTKVDKKVEPKSCDKTHTCPPCPAPPAAGPSVFLFPPKPKDTLMISRTPEVTCVVVDVSHEDPEVKFNWYVDGVEVHNAKTKPREEQYNSTYRVVSVLTVLHQDWLNGKEYKCKVSNKALAAPIEKTISKAKGQPREPQVYTLPPSREEMTKNQVSLTCLVKGFYPSDIAVEWESNGQPENNYKTTPPVLDSDGSFFLYSKLTVDKSRWQQGNVFSCSVMHEALHNHYTQKSLSLSPGKGGGGSEVQLLESGGGLVQPGGSLRLSCAASGFMLSAEDVGWVRQAPGKGLEWVSAILDFGGSTYYADSVKGRFTISRDNSKNTLYLQMNSLRAEDTAVYYCARVVYHAGGGVTFDYWGQGTLVTVSS
light: B5 light
notes: Symmetric IgG-like molecule, inert Fc; also called A-CEAxCD137; A-CEA/CD137
EC50 [9]: 0.57 µg/mL | Kd [10]: 360 nM | EC50 [11]: 0.75 µg/mL

Other lines, results leading:

Kd [1]: 200 nM | Kd [2]: 200 nM | EC50 [3]: 5.71 µg/mL
B2: BGA-7556-mutFc (Fc fusion VH) (Fc fusion)
chain: B1 chain with W112R, L117Q

Kd [5]: 94.8 nM | Functions EC50 (PBMC cytokine release) [6]: 0.341 µg/mL | Functional assay EC50 (PBMC cytokine release, in vitro CD137 activation) [7]: 0.31 µg/mL | EC50 [8]: 0.38 µg/mL
B4: BE-189 (Format A BGA-5623) (bispecific antibody, human IgG1, kappa)
heavy: B6 heavy with M482T, L483V, F508K, D516E, S529A, N538S, V553I, Y565T, W566R, L571Q
light: B5 light
notes: Module ratio 2:2, inert Fc

Kd [5]: 21.4 nM | Functions EC50 (PBMC cytokine release) [6]: 0.0768 µg/mL | EC50 [8]: 0.21 µg/mL
B7: Format A BGA-3386 (bispecific antibody, human IgG1, kappa)
heavy: B6 heavy with M482T, L483V, F508K, D516E, S529A, N538S, V553I, Y565T
light: B5 light

IC50 (read off the curve) [12]: ~0.4 µg/mL | IC50 (read off the curve) [13]: ~1 µg/mL
B8: human CD137 ligand-mIgG2a (Fc fusion)
chain: EPRGPTIKPCPPCKCPAPNLLGGPSVFIFPPKIKDVLMISLSPIVTCVVVDVSEDDPDVQISWFVNNVEVHTAQTQTHREDYNSTLRVVSALPIQHQDWMSGKEFKCKVNNKDLPAPIERTISKPKGSVRAPQVYVLPPPEEEMTKKQVTLTCMVTDFMPEDIYVEWTNNGKTELNYKNTEPVLDSDGSYFMYSKLRVEKKNWVERNSYSCSVVHEGLHNHHTTKSFSRTPGKGGGGSREGPELSPDDPAGLLDLRQGMFAQLVAQNVLLIDGPLSWYSDPGLAGVSLTGGLSYKEDTKELVVAKAGVYYVFFQLELRRVVAGEGSGSVSLALHLQPLRSAAGAAALALTVDLPPASSEARNSAFGFQGRLLHLSAGQRLGVHLHTEARARHAWQLTQGATVLGLFRVTPEIPAGLPSPRSE
notes: also called human CD137 ligand ECD-mIgG2a; huCD137 ligand
